Results on 5 molecules are retold here after US12202887B2, “Eradication of bacterial biofilm using anti-amyloid monoclonal antibodies” (priority 2018, dated 2025).

Like-named read-outs stand apart in the source and are kept apart here. Where only a bound is given, the exact number is not on record here.

In data set [1] the test system is S. Typhimurium biofilm. As to the kind of experiment: S. Typhimurium biofilms with or without ALZ.3H3, then ampicillin or DNase for 24 hours, Syto9 imaging. The settings on record: for Overall biofilm appearance: wildtype biofilms treated alone for 24 hours after biofilm establishment. It counts as cell-based. The text has this: Biofilms enhance the recalcitrance of bacteria to antibiotics (Keren et al., 2004, FEMS Microbiol Lett, 230(1):13-8, Brown et al., 1988, J Antimicrob Chemother, 22(6):777-80, Stewart, 2002, Int J Med Microbiol, 292(2):107-13). To enhance the clearance of bacterial biofilms, the structure of the biofilm was altered by employing ALZ.3H3 and then the biofilm was subjected to antibiotics to kill the bacteria within the disperse biofilm. […] an additional integral component of S. Typhimurium biofilms, wildtype or ALZ.3H3 incubated biofilms were exposed to X DNase treatment for an additional 24 hours. Biofilms were then stained with Syto9 and visualized using CSML. Excessive washing steps were avoided in aims to examine the architecture of the biofilms.

In data set [2] the test system is tau paired helical filaments (TAU PHF) isolated from AD brain homogenates. Kind of data set: SPR binding to tau paired helical filaments. The settings on record: antibody concentration 66.7 nM. On the procedure: FIG. 14 depicts a surface plasma resonance (SPR) analysis for binding to aggregated islet amyloid peptide IAPP and tau paired helical filaments (TAU PHF) isolated from AD brain homogenates. The antibody concentrations used in this study were 110 nM for the IAPP and 66.7 nM for the Tau-PHF.
Human mAbs were assayed by SPR for binding to aggregated islet amyloid peptide IAPP and tau paired helical filaments (TAU PHF) isolated from AD brain homogenates (FIG. 14). The antibody concentrations used in this study were 110 nM for the IAPP and 66.7 nM for the Tau-PHF.
A general note: SPR reads the build-up and loss of mass on a sensor chip optically.

The subject of data set [3] is S. Typhimurium biofilm. As to the kind of experiment: S. Typhimurium biofilms established in presence of mAb, Syto9 stain, CSLM, ImageJ particle count, supernatant plating. The class given is cell-based. The settings on record: 0.5 mg/ml. How it is done: After growth, biofilms were stained with Syto9 and imaged using CSLM. Three dimensional architecture was examined by creating 3D surface plots using ImageJ. […] To quantify the disperse biofilm created by treatment with ALZ.3H3, through the use of ImageJ all particles above the thickness of a wild-type S. Typhimurium ([…]) was used to set the threshold value, and these threshold parameters were applied to subsequent treatments (FIG. 1B). […] The bacteria recovered from the supernatants is representative of the loose disperse biofilm matrix that is easily dissociated from the biomass.

Data set [4] concerns pre-established S. Typhimurium biofilms. As to the kind of experiment: mAb added to pre-established S. Typhimurium biofilms, CSLM and particle count. The class given is cell-based. How it is done:
To determine if ALZ.3H3 can reduce biofilm formation of pre-established biofilms of S. Typhimurium, 0.5 mg/ml of ALZ.3H3 was added for an additional 24 hours to a 24 hour pre-established biofilm of S. Typhimurium, or 0.5 mg/ml of ALZ.3H3 was added for 24 hours to a 48 hour pre-established biofilms. These biofilms were then compared, respectively, to a 48 and 72 hour S. Typhimurium biofilm that was not exposed to ALZ.3H3 (FIG. 2A). Biofilms were stained with Syto9 and imaged using CSML. Biofilms were not wash extensively in order determine the impact of ALZ.3H3 on biofilm architecture. […] Using the thresholding technique described earlier, the number of particles above the thickness of the wild-type S. Typhimurium were counted.

The subject of data set [5] is Histadine tagged CsgA (His-CsgA), curli. Kind of data set: Thioflavin T (ThT) fibrillization assay of His-CsgA. The class given is biochemical. How it is done:
The formation of monomers into mature curli fibrils can be monitored by incubation with Thioflavin T (ThT). Fluorescence of ThT increases as it binds to amyloid fibril, allowing the amyloid formation process to be measured spectroscopically. The formation of amyloid fibers can be defined by a three stage sigmoidal curve (Dueholm et al., 2011, Biochemistry, 50(39):8281-90; Wang et al., 2007, J Biol Chem, 282(6):3713-9). In the first stage, monomeric subunits are slow to self-associate and ThT fluorescence is minimal (Naiki et al., 1991, Lab Invest, 65(1):104-10). The reaction exponential increases as monomeric seeds oligomerize and continue to elongate (Naiki et al., 1991, Lab Invest, 65(1):104-10). This process is marked by a rapid increase in ThT fluorescence (Naiki et al., 1991, Lab Invest, 65(1):104-10). The oligomers elongate into mature fibrils and Tht fluorescence peaks (Dueholm et al., 2011, Biochemistry, 50(39):8281-90; Wang et al., 2007, J Biol Chem, 282(6):3713-9). […] Histadine tagged CsgA (His-CsgA), which will naturally self-associate and fibrillize, was incubated with 0.5 mg/ml ALZ.3H3 and the fibrillization reaction was monitored using ThT. As controls synthetic peptides CsgAR4-5 and CsgAR4-5N122A were incubated with Tht and the fribrillization reaction was monitored in parallel. […]

In another data set the test system is E. coli UTI89 biofilm. Kind of data set: Colony forming units per biofilm on glass coverslips, E. coli UTI89.
For data set [6], the system named is S. Typhimurium (STM) biofilm. As to the kind of experiment: Colony forming units per biofilm on glass coverslips, S. Typhimurium.
Method: (§1) Biofilms of S. Typhimurium (STM) or E. coli UTI89 grown in the absence or presence of 3H3 (250 ug/ml, 125 ug/ml, 50 ug/ml, 25 ug/ml, 10 ug/ml, 1 ug/ml) as well as grown with 0.5 mg/ml control A6 antibody on top of sterile glass coverslips for 72 hours at 26 C in a sterile 24 well dish. S. Typhimurium curli mutant (csgBA) and UTI89 curli mutant (csgBA) were also grown as a negative controls. In select conditions, biofilms were incubated for an additional 24 hours at 26 C with 30 ug/ml Ampicillin (Amp). The sterile glass coverslip, which was used as a surface for the biofilm to grow upon, was placed in a sterile 15 ml conical tube that contained 3 ml of sterile PBS. The biofilm was sonicated for 10 seconds at a setting of 4 using a ThermoFisher Sonic Dismembrator. Bacteria were enumerated by serial diluting 1:10 in sterile PBS and spot plating on agar plates.
(§2) Biofilms of S. Typhimurium (STM) or E. coli UTI89 grown in the absence or presence of 3H3 (250 ug/ml, 125 ug/ml, 50 ug/ml, 25 ug/ml, 10 ug/ml, 1 ug/ml) as well as grown with 0.5 mg/ml control A6 antibody on top of sterile glass coverslips for 72 hours at 26 C in a sterile 24 well dish. S. Typhimurium curli mutant (csgBA) and UTI89 curli mutant (csgBA) were also grown as a negative controls. In select conditions, biofilms were incubated for an additional 24 hours at 26 C with 30 ug/ml Ampicillin (Amp). […]
In data set [7] the test system is S. Typhimurium biofilm on medical grade catheters. As to the kind of experiment: In vitro catheter assay: Salmonella biofilms grown on sterile i.v. catheters, GFP and Congo red. The settings on record: 0.5 mg/ml for 72 hours.
Method: (§3) Salmonella biofilms were grown alone or in the presence of ALZ3H3 antibody upon sterile i.v. catheters. Bacteria were labeled green using GFP. Congo red was used to stain for curli amyloid fibrils. […] To investigate the combination effect of ALZ3H3 and ampicillin on biofilm growth, mice were given 1 mg/ml Ampicillin in the drinking water 24 hours prior to catheter insertion. Sterile i.v. catheters were incubated for 24 hours with Salmonella typhimurium prior to insertion into the back flanks of Balb/C mice. 24 and 28 hours after catheter insertion 100 ug of ALZ3H3 was percutaneously inserted into the lumen of the catheter. 72 hours after catheter insertion, mice were euthanized and the catheters were removed. Bacteria were labeled green using GFP. Congo red was used to stain for curli amyloid fibrils. Catheters autofluoresced green.
Data set [8] has as its system Salmonella typhimurium catheter biofilm. Kind of data set: In vivo catheter assay: Salmonella typhimurium colonized catheters inserted into back flanks of mice.
Method: as §3
The next data set deals with T1, Aβ42 conformers (Homo sapiens, UniProt P05067).
T1 construct: Amyloid beta derived diffusible ligands (ADDLs), also known as globulomers, produced from Aβ42
As to the kind of experiment: MAb binding to Aβ42 conformers by surface plasma resonance (SPR). On the procedure:
MAb binding to Aβ42 conformers was measured by surface plasma resonance (SPR) (Table 1). Calculated affinity constants (KD) were obtained using Qdat software. […] The 3H3 binding data is qualitatively most similar to the 4G1 and 6E10 mAbs.

T1 sequence (P05067 672-713 limits assumed): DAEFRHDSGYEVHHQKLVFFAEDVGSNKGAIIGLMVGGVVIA
tau paired helical filaments (TAU PHF) isolated from AD brain homogenates, sequence (P10636 623-695 limits assumed): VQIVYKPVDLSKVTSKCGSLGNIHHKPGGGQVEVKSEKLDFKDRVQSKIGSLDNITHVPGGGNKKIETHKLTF
Method for E. coli UTI89 biofilm: as §1, §2

As for `CC1(C)S[C@@H]2[C@H](NC(=O)[C@H](N)c3ccccc3)C(=O)N2[C@H]1C(=O)O` [ampicillin], the Overall biofilm appearance result with S. Typhimurium biofilm [1] was “no alteration in overall biofilm appearance”.

As to DNase, the Overall biofilm appearance entry in the data set on S. Typhimurium biofilm [1] is recorded as “no alteration in overall biofilm appearance”.

B1: 4G1: human anti-amyloid mAb cloned from B cells of an Alzheimer's patient; heavy chain SEQ ID NO:61, light chain SEQ ID NO:63 (antibody, V domains shown)
VH: EEHLVESGGALVQPGGSLRLSCEASGFTFRSYWMTWVRQAPGKGLEWLANIKQDGSDYYYVDSVKGRFTISRDNAKNTLYLQMNNLRADDTAVYFCARDARYRDTTWPQYYFYYFMDVWGKGTTVTVSS
VL: DIQLTQSPSSLSASIGDRVTVTCRASQSISNYLNWYQQKPGKAPKLLIYAASNLHTGVPSRFSGSGSGTHFTLTISSLQPEDFATYYCQLSYNNPRTFGPGTTVDIR
modifications: Chemically Synthesized, ALZ.4G1 Heavy Chain; Chemically Synthesized, ALZ.4G1 Light Chain
In the case of B1, the “Binding to Tau PHF” value in [2] was “notable for binding to Tau PHF”.

B2: ALZ.3H3: human monoclonal antibody with pan-amyloid binding activity; heavy chain SEQ ID NO:2, light chain SEQ ID NO:35 (antibody)
VH: MEFGLSWVFLVALLRGVQCQVQLVESGGGVVQPGRSLRLSCAASGFSFSTYGMHWVRQAPGKGLEWVAVISYDGSRKYYADTGKGRFTISRDNSKNTLYLEMNGLRAEDTAVYHCAKDLRRELGFGNRDYHYYGMDAWGQGTTVTVSSASTK
light: LTQPRSVSGSPGQSVTMSCTGTNSDIGGYNYVSWYQQHPGKAPKLMIYDVYKRPSGVPDRFSGSKSGNTASLTISGLQAEDEADYYCCSYAGTNNLIFGGGTKLTVLGQPKAAPSVTLFPPSSEELQANKATLVCLISDFYPGAVTVAWKADSSPVKAGVETTTPSKQSNNKYAASSYLSLTPEQWKSHRSYSCQV
modifications: Chemically Synthesized, ALZ.3H3 Heavy Chain; Chemically Synthesized, ALZ.3H3 Light Chain
Consider B2, for which the “Number of particles above the thickness of wild-type biofilm (20 μM)” value in the data set with S. Typhimurium biofilm [3] (72 hours at 28° C.) was “significant increase in number of particles”. Besides, the Biofilm architecture entry with S. Typhimurium biofilm [3] (72 hours at 28° C., 3D surface plots) was “altered the architecture of biofilm forming a disperse biofilm topography”. The “Bacteria recovered from biofilm supernatant” value with S. Typhimurium biofilm [3] (plating supernatants) is recorded as “significantly more bacteria was recovered”. Moreover, the “Number of particles above the thickness of wild-type biofilm” value in [4] (24 hour pre-established biofilm + 0.5 mg/ml for 24 hours) is “increased the number of particles”; in data set [4] (48 hour pre-established biofilm + 0.5 mg/ml for 24 hours), “the number of particles increased as well”. Besides, the Biofilm matrix architecture entry in data set [4] (24 hour pre-established biofilm + 0.5 mg/ml for additional 24 hours, vs 48 hour biofilm) is “began to exhibit a more disperse matrix”; in data set [4] (48 hour pre-established biofilm + 0.5 mg/ml for additional 24 hours, vs 72 hour biofilm), “the biofilm matrix was more disperse”. Further, in [5] (0.5 mg/ml antibody, compared to synthetic peptide CsgAR4-5), the “Lag time (t0) for His-CsgA to self-associate and oligomerize” value is reported as “significant increase in the lag times”. In [5] (His-CsgA with 0.5 mg/ml antibody), the “ThT relative fluorescence units (fibril formation)” value is “significant reduction in the relative fluorescence units”. The Biofilm mass entry in the data set on S. Typhimurium biofilm [1] (0.5 mg/ml ALZ.3H3 during growth, then antibiotic treatment (ampicillin) for additional 24 hours) is recorded as “significant reduction in the biofilm mass to the levels below detection”. For the same molecule, the “Binding to Tau PHF” value in data set [2] is “notable for binding to Tau PHF”. The CFU/biofilm entry is recorded as “reduction of CFU/biofilm” in the data set on E. coli UTI89 biofilm (UTI89 grown with 3H3 (1-250 ug/ml), 72 hours at 26 C); “additional reduction in CFU/biofilm” with E. coli UTI89 biofilm (UTI89 grown with 3H3, then 30 ug/ml Ampicillin for additional 24 hours); “reduction of CFU/biofilm” in data set [6] (STM grown with 3H3 (1-250 ug/ml), 72 hours at 26 C); “additional reduction in CFU/biofilm” in [6] (STM grown with 3H3, then 30 ug/ml Ampicillin for additional 24 hours). Moreover, in [7], the Catheter biofilm morphology entry is given as “the biofilm was dispersed”. The “Congo red staining (curli fibers)” value in [7] is on record as “no significant staining with Congo red”. In data set [8] (100 ug percutaneously into catheter lumen, catheters removed at 72 hours), the “Catheter biofilm morphology and curli” value is on record as “disperse morphology with little curli”. Further, in data set [8] (combination: 100 ug ALZ3H3 into lumen + 1 mg/ml ampicillin in drinking water), the “Amyloid incorporation in catheter biofilm” value is “little to no amyloid incorporation”.

B3: 4A6: human anti-amyloid mAb cloned from B cells of an Alzheimer's patient; heavy chain SEQ ID NO:57, light chain SEQ ID NO:59 (antibody, V domains shown)
VH: QVQLVQSGAEVKKPGASMRVSCKASGYTYTAYYIHWMRQAPGQGLEWMGWINPHIGSTNYAEKFRGRVTLTRDTSIKTAYMDLDRLTSDDTAIYYCARVRAPRSISGTLNSYGMDVWGQGTTVAVSS
VL: DIVMTQSPSSLSASVGDRVVITCRASLRIGTFLNWYQQTQGRAPKLLVSSASTLQSGVPSRFSGSGSGTDFTLTINSLQPEDFATYYCQQSYSTTWTFGQGTKVELK
modifications: Chemically Synthesized, ALZ.4A6 Heavy Chain; Chemically Synthesized, ALZ.4A6 Light Chain
On to B3, for which the “Binding preference among Aβ42 conformers” value in the data set with Aβ42 conformers is “preferentially bind Aβ fibrils”. The Kd with Aβ42 conformers (C-terminal biotinylated ADDLs/globulomers, read-out: Calculated affinity constant (KD), CTB oligo) was above 2000 nM; in the data set with Aβ42 conformers (N-terminal biotinylated monomers, read-out: Calculated affinity constant (KD), NTB mono), above 2000 nM.

The Kd is the free concentration of one partner at which half of the binding sites on the other are occupied at equilibrium, for simple one-to-one binding.
